Data from the supplement of paper PMC10126150.
± gives the standard deviation of the averaged measurements.
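Also: ATP exposure 15 min at 22 °C before imaging.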

These sequences were tested on ATP (assay: switch fluorescence ratio, 500 uM ATP over buffer (Cy3 cluster intensity, sum of 5 cycles each) (fold (ratio)); higher = stronger signal-on switching upon ATP binding; sequences stand for … in TCGTCGGCAGCGTCAGATGTGTATAAGAGACAGTTTTTTTTTTTTTTTTTTTTTTTTT…TC). Settings: aptamer strand: ATP DNA aptamer (quencher-CACCTGGGGGAGTATTGCGGAGGAAGG + anchor), 100 nM annealed; ATP concentration: 500 uM.
In short: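 For every switch-domain sequence, the fluorescence ratio is the mean of per-cluster values, each being summed target-cycle Cy3 intensity over summed buffer-cycle Cy3 intensity. Clusters outside 100-1000 RFU were excluded. On a modified Illumina MiSeq flow-cell, the Cy3-labelled switching-strand clusters were annealed to 100 nM quencher-labelled ATP aptamer, imaged in selection buffer and then after 15 min with 500 uM ATP at 22 °C. Five such cycles were run, with NaOH stripping and re-annealing between them.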
With GTCAATGGTG the switch fluorescence ratio was 0.9901 ± 0.0074.
Sequence TTGTTCGATG has a switch fluorescence ratio of 0.99 ± 0.025.
With ATTGATTGCT the switch fluorescence ratio was 0.9989 ± 0.0036.
Work on GGGGTTGGCG yielded a switch fluorescence ratio of 1.117 ± 0.0064.
TGATAGGTGG showed a switch fluorescence ratio of 1 ± 0.028.
Sequence TTTTATCCTT has a switch fluorescence ratio of 1 ± 0.028.
AGTATGACGT showed a switch fluorescence ratio of 0.986 ± 0.026.
Sequence TCGGGAAGGA has a switch fluorescence ratio of 1.01 ± 0.031.
With AAATGGTTGT the switch fluorescence ratio was 1.01 ± 0.02.
GGTTAACTGG was tested, and the switch fluorescence ratio was 0.991 ± 0.023.
With ACAGTACACA the switch fluorescence ratio was 1.3 ± 0.061.
With GTTTGCCAGG the switch fluorescence ratio was 1.01 ± 0.013.
GGCTACCAGT was tested, and the switch fluorescence ratio was 0.96 ± 0.038.
TAATGGAAAT showed a switch fluorescence ratio of 0.979 ± 0.022.
Work on GTTATGCCGG yielded a switch fluorescence ratio of 0.97 ± 0.094.
AATAAAGGGT showed a switch fluorescence ratio of 1.02 ± 0.027.
For GGGAAGTCTG, the switch fluorescence ratio was 0.955 ± 0.024.
AAAACATCGC was tested, and the switch fluorescence ratio was 1.015 ± 0.0029.
For CGTAAAGGCC, the switch fluorescence ratio was 0.9465 ± 0.0012.
AGAATCTTTC gave a switch fluorescence ratio of 1.05 ± 0.071.
With TGGAGTCCGG the switch fluorescence ratio was 0.987 ± 0.036.
Sequence TGAGTTAGTT has a switch fluorescence ratio of 1.01 ± 0.016.
CCAGAGACCG was tested, and the switch fluorescence ratio was 1.04 ± 0.012.
For GGGGTGTTGT, the switch fluorescence ratio was 1 ± 0.04.
Work on ACGTTAGGGA yielded a switch fluorescence ratio of 1.07 ± 0.091.
AATGTGTTG showed a switch fluorescence ratio of 0.984 ± 0.041.
For CTACGGGGCT, the switch fluorescence ratio was 1.01 ± 0.02.
Work on TCAGGGACCG yielded a switch fluorescence ratio of 1.03 ± 0.026.
For AGGATTAACA, the switch fluorescence ratio was 1.05 ± 0.013.
In the case of TTTGTGGGGC, the switch fluorescence ratio is reported as 1.01 ± 0.042.
TACTTGTCGG showed a switch fluorescence ratio of 0.985 ± 0.025.
For GGTCGTAAGT, the switch fluorescence ratio was 0.988 ± 0.026.
Work on CTGGGTGCCG yielded a switch fluorescence ratio of 0.968 ± 0.084.
GAAAAATTAA gave a switch fluorescence ratio of 0.993 ± 0.026.
In the case of GACCCGTCCA, the switch fluorescence ratio is reported as 0.995 ± 0.024.
ATTTCAGGGG was tested, and the switch fluorescence ratio was 1.09 ± 0.061.
CGAATTTACC was tested, and the switch fluorescence ratio was 1.19 ± 0.15.
Work on CAAAAGGGCC yielded a switch fluorescence ratio of 1.021 ± 0.0042.
GGTTTTTTAA was tested, and the switch fluorescence ratio was 0.995 ± 0.011.
CTTTTACTAA gave a switch fluorescence ratio of 1.024 ± 0.0071.
For TGTATGGGGT, the switch fluorescence ratio was 0.973 ± 0.018.
ACCGTCTGTA gave a switch fluorescence ratio of 1.014 ± 0.0058.
With AGCGGTTCAC the switch fluorescence ratio was 1.018 ± 0.0029.
ACAATTGCGT gave a switch fluorescence ratio of 1.05 ± 0.024.
CGGTCCAGTA gave a switch fluorescence ratio of 0.912 ± 0.048.
In the case of TCATGTGCGG, the switch fluorescence ratio is reported as 0.9639 ± 0.0022.
Sequence ACTGGGGAGG has a switch fluorescence ratio of 1.01 ± 0.022.
In the case of AACGCAGCCT, the switch fluorescence ratio is reported as 1.11 ± 0.0027.
GGGTAGTGCG showed a switch fluorescence ratio of 0.9812 ± 0.0055.
With GATCATTTGT the switch fluorescence ratio was 0.9797 ± 0.0018.
TTGTTCGGGG was tested, and the switch fluorescence ratio was 1.03 ± 0.056.
Work on GGGAGGGTGT yielded a switch fluorescence ratio of 1.09 ± 0.02.
GAGGCAGTTA showed a switch fluorescence ratio of 1.11 ± 0.046.
AAGCATTAGT gave a switch fluorescence ratio of 1.05 ± 0.04.
Work on GTAAGAGGAA yielded a switch fluorescence ratio of 1.01 ± 0.044.
TTTGTGATG showed a switch fluorescence ratio of 0.959 ± 0.027.
With GGGGGCGCGT the switch fluorescence ratio was 1.02 ± 0.038.
TGAGTGATTG was tested, and the switch fluorescence ratio was 1.04 ± 0.052.
Sequence TGAGTGCTGT has a switch fluorescence ratio of 0.968 ± 0.02.
AATGGCTGGG gave a switch fluorescence ratio of 0.999 ± 0.043.
ATGTCGATGC gave a switch fluorescence ratio of 1.01 ± 0.032.
Sequence CGGGCTGGAA has a switch fluorescence ratio of 1.004 ± 0.0086.
Work on TTTAAGAGTG yielded a switch fluorescence ratio of 0.992 ± 0.0031.
GGGAGGGCAA was tested, and the switch fluorescence ratio was 0.986 ± 0.013.
With TTCTTTTTAT the switch fluorescence ratio was 0.982 ± 0.03.
Work on TTTAGGGTGA yielded a switch fluorescence ratio of 1.05 ± 0.028.
TGTGGTTTCC gave a switch fluorescence ratio of 1.01 ± 0.022.
Sequence TACTAAGTGG has a switch fluorescence ratio of 1.05 ± 0.015.
Work on AGGTAGAGGA yielded a switch fluorescence ratio of 1.01 ± 0.035.
Work on ACTATGTAGG yielded a switch fluorescence ratio of 0.979 ± 0.013.
For GGCCGATCAT, the switch fluorescence ratio was 1.02 ± 0.04.
TGATTAGGGC showed a switch fluorescence ratio of 1.01 ± 0.017.
For TCTGCTAAGG, the switch fluorescence ratio was 0.98406 ± 0.00079.
For GTCTGAACGT, the switch fluorescence ratio was 0.995 ± 0.081.
For GAATAGGGCC, the switch fluorescence ratio was 1.01 ± 0.028.
Work on AGGAACGTAC yielded a switch fluorescence ratio of 1.61 ± 0.057.
With TTAAGGGACG the switch fluorescence ratio was 0.996 ± 0.11.
For TTGAGGATGT, the switch fluorescence ratio was 1 ± 0.034.
Sequence AGTTATATTG has a switch fluorescence ratio of 0.997 ± 0.07.
In the case of TTACTTGAAT, the switch fluorescence ratio is reported as 0.969 ± 0.039.
Work on GAGTTGGTCT yielded a switch fluorescence ratio of 1 ± 0.027.
Work on TCATAAGGGC yielded a switch fluorescence ratio of 1.01 ± 0.12.
TGAGTTAAGG gave a switch fluorescence ratio of 0.986 ± 0.012.
Sequence GGTCCGGGGC has a switch fluorescence ratio of 1.01 ± 0.026.
With TTAGGGAATT the switch fluorescence ratio was 0.989 ± 0.046.
ATTGATGAGT was tested, and the switch fluorescence ratio was 0.993 ± 0.04.
TGGTTTTTAC gave a switch fluorescence ratio of 1.01 ± 0.038.
For TCTTATAAAC, the switch fluorescence ratio was 1.02 ± 0.023.
Work on TACAGGGCCT yielded a switch fluorescence ratio of 0.9882 ± 0.0085.
AAATGGAGGA was tested, and the switch fluorescence ratio was 0.988 ± 0.032.
With TTCGTGCAGG the switch fluorescence ratio was 1.02 ± 0.043.
Work on CTAGTATGGA yielded a switch fluorescence ratio of 1.02 ± 0.031.
Work on AGGCCCACGG yielded a switch fluorescence ratio of 1.006 ± 0.0067.
For GAGCGTAAGT, the switch fluorescence ratio was 0.958 ± 0.03.
TCGGTTTCAA gave a switch fluorescence ratio of 1.009 ± 0.0056.
TTGGACTGGT gave a switch fluorescence ratio of 1.04 ± 0.039.
With AAATGTTGAT the switch fluorescence ratio was 1.03 ± 0.019.
For TTTTTTCGCT, the switch fluorescence ratio was 1.02 ± 0.047.
In the case of TCAAGTTTTC, the switch fluorescence ratio is reported as 0.987 ± 0.034.
With CATTGCGAGG the switch fluorescence ratio was 1.02 ± 0.039.
CAGTGAGGGG showed a switch fluorescence ratio of 0.984 ± 0.029.
GAACTCATGA gave a switch fluorescence ratio of 0.982 ± 0.012.
Work on CAGAGGTGCG yielded a switch fluorescence ratio of 0.969 ± 0.056.
GGATAACGTA was tested, and the switch fluorescence ratio was 1.01 ± 0.049.
For TGGTGCAGGG, the switch fluorescence ratio was 0.984 ± 0.015.
GCACCAGGGG gave a switch fluorescence ratio of 1.81 ± 0.81.
TGTGATTTTG gave a switch fluorescence ratio of 0.998 ± 0.028.
ATTGGACATC was tested, and the switch fluorescence ratio was 1.11 ± 0.11.
GGGTGAATGG was tested, and the switch fluorescence ratio was 0.9976 ± 0.0016.
In the case of AGAGGCCAAC, the switch fluorescence ratio is reported as 1.002 ± 0.0062.
TATTTCTGTG was tested, and the switch fluorescence ratio was 1.02 ± 0.034.
GCAAGCTAGG gave a switch fluorescence ratio of 1.03 ± 0.017.
With GGATTGGGCA the switch fluorescence ratio was 1.01 ± 0.021.
For TTTGATGGGG, the switch fluorescence ratio was 0.988 ± 0.025.
For TTATGCTATT, the switch fluorescence ratio was 1 ± 0.022.
With GTTCTTTATC the switch fluorescence ratio was 0.994 ± 0.018.
TAGTCATTTG was tested, and the switch fluorescence ratio was 0.962 ± 0.0097.
In the case of GGGGGGGCTG, the switch fluorescence ratio is reported as 1.06 ± 0.4.
TTGAATTTTA gave a switch fluorescence ratio of 0.999 ± 0.033.
Work on TTTCAGTGAC yielded a switch fluorescence ratio of 1.04 ± 0.079.
CGGATTTTAT gave a switch fluorescence ratio of 1.02 ± 0.035.
GGTCGTTTCG was tested, and the switch fluorescence ratio was 1.01 ± 0.018.
In the case of AGGAGGGGGA, the switch fluorescence ratio is reported as 1.03 ± 0.045.
For TAGTAATATT, the switch fluorescence ratio was 1.11 ± 0.12.
TTTTGATAAT showed a switch fluorescence ratio of 0.991 ± 0.016.
GCTTTGTACG showed a switch fluorescence ratio of 1.042 ± 0.0014.
With GTCCATCCCA the switch fluorescence ratio was 1.001 ± 0.009.
In the case of ATAGGAGTAG, the switch fluorescence ratio is reported as 0.993 ± 0.036.
GCTTTTGTTT was tested, and the switch fluorescence ratio was 1.04 ± 0.013.
ATGGGTAGTT gave a switch fluorescence ratio of 0.977 ± 0.022.
Work on TGAAGTTTGC yielded a switch fluorescence ratio of 0.999 ± 0.01.
In the case of ATAGGGAGAG, the switch fluorescence ratio is reported as 0.987 ± 0.016.
In the case of TTAGATGGTG, the switch fluorescence ratio is reported as 1.02 ± 0.033.
Work on GTCCGGGGCT yielded a switch fluorescence ratio of 1.04 ± 0.036.
AAAGTGGCGT gave a switch fluorescence ratio of 0.984 ± 0.08.
GGGGTTTATC showed a switch fluorescence ratio of 1.01 ± 0.04.
GATTAGACAC showed a switch fluorescence ratio of 1.013 ± 0.01.
TTGCGTTTCT showed a switch fluorescence ratio of 1.08 ± 0.086.
Work on TCCGGGCAGG yielded a switch fluorescence ratio of 1.14 ± 0.023.
TCCAATTGCG was tested, and the switch fluorescence ratio was 0.953 ± 0.021.
Work on CGCTTGTATT yielded a switch fluorescence ratio of 1.02 ± 0.013.
ATTGTTTTCG gave a switch fluorescence ratio of 1 ± 0.029.
For TCTTGTCGGT, the switch fluorescence ratio was 1 ± 0.034.
With TCGGGGGCTT the switch fluorescence ratio was 0.996 ± 0.015.
Sequence TGTGGTAGCG has a switch fluorescence ratio of 1.01 ± 0.018.
With GTATAATGGG the switch fluorescence ratio was 0.973 ± 0.019.
TTTGTGAGGT showed a switch fluorescence ratio of 1.01 ± 0.034.
Work on TTGGTATTTT yielded a switch fluorescence ratio of 0.989 ± 0.018.
With TCCAGTTAGT the switch fluorescence ratio was 0.977 ± 0.013.
TACTCTCCTT was tested, and the switch fluorescence ratio was 1.09 ± 0.016.
Sequence TGGCACAGTG has a switch fluorescence ratio of 0.996 ± 0.019.
In the case of TTTATATTTG, the switch fluorescence ratio is reported as 1 ± 0.027.
TAGACTTTAG gave a switch fluorescence ratio of 1.0314 ± 0.0007.
CGGTCAGTAA showed a switch fluorescence ratio of 1.03 ± 0.022.
In the case of TTTTATGAGG, the switch fluorescence ratio is reported as 0.973 ± 0.03.
GTTAGTCTGA was tested, and the switch fluorescence ratio was 1.01 ± 0.043.
GACGGAGTTG gave a switch fluorescence ratio of 1.01 ± 0.026.
